We go through six molecules from article PMC9482650, “Quantitative fragmentomics allow affinity mapping of interactomes” (Nature Communications, 2022).

For orientation: pKd means the Kd on a negative log10 scale, so that one unit is a factor of ten.

Common to all, as to assay: holdup assay
Set-up in all cases: key: below the threshold = too weak to quantify, mostly under pKd 3.1 to 4

Test [1] has as its target DLG2_2, Q15700.
Test [2] addresses TJP2_1, Q9UDY2.
Test [3] has as its target LNX1_3, Q8TBB1.
Test [4] deals with GRID2IP_2, A4D2P6.
Test [5] concerns the target GRIP2_4, Q9C0E4.
The target in test [6] is T1, GRIP1_7, Q9Y3R0.
T1 sequence (Q9Y3R0 999-1096, limits assumed, looked up): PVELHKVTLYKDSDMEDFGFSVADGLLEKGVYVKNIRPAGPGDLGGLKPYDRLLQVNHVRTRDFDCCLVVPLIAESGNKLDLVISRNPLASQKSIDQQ

Test [7] deals with T2, DFNB31_1, Q9P202.
T2 sequence (Q9P202 135-233, limits assumed, looked up): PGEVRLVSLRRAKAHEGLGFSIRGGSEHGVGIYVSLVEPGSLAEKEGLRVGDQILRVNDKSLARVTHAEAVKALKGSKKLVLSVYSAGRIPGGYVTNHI

Test [8] concerns the target T3, DFNB31_3, Q9P202.
T3 sequence (Q9P202 811-907, limits assumed, looked up): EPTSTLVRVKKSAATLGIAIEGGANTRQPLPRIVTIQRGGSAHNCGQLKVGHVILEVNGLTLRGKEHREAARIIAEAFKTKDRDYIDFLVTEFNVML
The settings on record: plain residues with an end cap or a label only (N-terminal biotin on a linker: ttds).

The target of test [9] is PTPN3, P26045.
Test [10] concerns the target T4, MPP2, Q14168.
T4 sequence (Q14168 180-250, limits assumed, looked up): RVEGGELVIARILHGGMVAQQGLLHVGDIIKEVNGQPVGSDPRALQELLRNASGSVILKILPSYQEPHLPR
The settings on record: plain residues with an end cap or a label only (N-terminal biotin on a linker: ttds).

Test [11] deals with AHNAK1, Q09666. The settings on record: plain residues with an end cap or a label only (N-terminal biotin on a linker: ttds).
Test [12] concerns the target T5, SIPA1L2, Q9P2F8.
T5 sequence (Q9P2F8 945-1036, limits assumed, looked up): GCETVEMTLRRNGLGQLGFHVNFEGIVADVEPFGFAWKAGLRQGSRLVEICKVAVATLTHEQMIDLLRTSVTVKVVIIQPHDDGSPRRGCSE
The settings on record: plain residues with an end cap or a label only (N-terminal biotin on a linker: ttds).

For test [13], the target named is T6, GRIP1_4, Q9Y3R0.
T6 sequence (Q9Y3R0 467-571, limits assumed, looked up): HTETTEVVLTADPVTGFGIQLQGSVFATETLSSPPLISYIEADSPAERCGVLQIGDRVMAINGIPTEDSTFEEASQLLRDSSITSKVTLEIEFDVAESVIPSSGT

For test [14], the target named is HTRA1, Q92743. The settings on record: plain residues with an end cap or a label only (N-terminal biotin on a linker: ttds).
For test [15], the target named is T7, APBA3_1, O96018.
T7 sequence (O96018 389-490, limits assumed, looked up): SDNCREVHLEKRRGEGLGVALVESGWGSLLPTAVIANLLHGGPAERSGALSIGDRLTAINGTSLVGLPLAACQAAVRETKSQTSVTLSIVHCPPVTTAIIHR
The settings on record: plain residues with an end cap or a label only (N-terminal biotin on a linker: ttds).

Test [16] has as its target T8, TIAM2, Q8IVF5.
T8 sequence (Q8IVF5 885-986, limits assumed, looked up): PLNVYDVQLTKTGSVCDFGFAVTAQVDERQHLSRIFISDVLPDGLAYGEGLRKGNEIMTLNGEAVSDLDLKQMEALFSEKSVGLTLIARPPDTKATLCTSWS
The settings on record: plain residues with an end cap or a label only (N-terminal biotin on a linker: ttds).

Test [17] deals with T9, SHANK1, Q9Y566.
T9 sequence (Q9Y566 658-767, limits assumed, looked up): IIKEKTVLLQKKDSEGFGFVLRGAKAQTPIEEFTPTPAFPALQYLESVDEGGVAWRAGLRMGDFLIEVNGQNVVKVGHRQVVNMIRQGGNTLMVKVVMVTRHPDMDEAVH
The settings on record: plain residues with an end cap or a label only (N-terminal biotin on a linker: ttds).

The target in test [18] is T10, MPDZ_5, O75970.
T10 sequence (O75970 695-796, limits assumed, looked up): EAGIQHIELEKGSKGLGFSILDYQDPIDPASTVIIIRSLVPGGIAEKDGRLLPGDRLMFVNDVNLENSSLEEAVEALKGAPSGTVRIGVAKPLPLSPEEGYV
The settings on record: plain residues with an end cap or a label only (N-terminal biotin on a linker: ttds).

Test [19] addresses LAP2, Q96RT1.
In test [20] the target is T11, TJP3_3, O95049.
T11 sequence (O95049 375-456, limits assumed, looked up): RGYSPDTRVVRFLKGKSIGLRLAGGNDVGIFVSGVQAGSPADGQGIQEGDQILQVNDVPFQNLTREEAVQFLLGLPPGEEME
The settings on record: plain residues with an end cap or a label only (N-terminal biotin on a linker: ttds).

Test [21] deals with Inadl_3, Q8NI35. The settings on record: plain residues with an end cap or a label only (N-terminal biotin on a linker: ttds).
In test [22] the target is MAST2, Q6P0Q8. The settings on record: plain residues with an end cap or a label only (N-terminal biotin on a linker: ttds).
Test [23] concerns the target T12, GRIP1_2, Q9Y3R0.
T12 sequence (Q9Y3R0 145-248, limits assumed, looked up): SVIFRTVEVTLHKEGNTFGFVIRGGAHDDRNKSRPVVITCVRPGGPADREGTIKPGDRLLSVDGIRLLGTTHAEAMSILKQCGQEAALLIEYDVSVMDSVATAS
The settings on record: plain residues with an end cap or a label only (N-terminal biotin on a linker: ttds).

The target in test [24] is ARHGEF12, Q9NZN5-2.
The target in test [25] is GORASP1, Q9BQQ3. The settings on record: plain residues with an end cap or a label only (N-terminal biotin on a linker: ttds).
Test [26] concerns the target PICK1, Q9NRD5.
Where [27] appears, read: plain residues with an end cap or a label only (N-terminal biotin on a linker: ado-ado).
Where [28] appears, read: plain residues with an end cap or a label only (N-terminal biotin on a linker: ttds).

Chain of LNX1_3, Q8TBB1 (Q8TBB1 500-596): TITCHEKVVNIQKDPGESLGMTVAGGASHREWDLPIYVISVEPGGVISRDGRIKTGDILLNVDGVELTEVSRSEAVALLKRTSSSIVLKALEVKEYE
Chain of DLG2_2, Q15700 (Q15700 189-283): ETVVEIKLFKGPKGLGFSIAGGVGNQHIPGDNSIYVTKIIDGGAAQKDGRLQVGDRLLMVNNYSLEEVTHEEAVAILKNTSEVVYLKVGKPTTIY
Chain of PICK1, Q9NRD5 (Q9NRD5 17-115): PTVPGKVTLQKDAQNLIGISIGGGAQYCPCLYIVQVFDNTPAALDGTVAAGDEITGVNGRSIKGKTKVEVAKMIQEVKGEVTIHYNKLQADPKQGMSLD
Chain of AHNAK1, Q09666 (Q09666 4-100): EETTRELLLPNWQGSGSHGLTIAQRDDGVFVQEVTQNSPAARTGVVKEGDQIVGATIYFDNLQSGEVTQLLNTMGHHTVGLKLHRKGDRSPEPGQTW
Chain of GRID2IP_2, A4D2P6 (A4D2P6 272-370): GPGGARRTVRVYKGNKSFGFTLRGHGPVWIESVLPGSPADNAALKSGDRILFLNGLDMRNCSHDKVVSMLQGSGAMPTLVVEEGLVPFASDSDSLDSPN
Chain of MAST2, Q6P0Q8 (Q6P0Q8 1099-1202): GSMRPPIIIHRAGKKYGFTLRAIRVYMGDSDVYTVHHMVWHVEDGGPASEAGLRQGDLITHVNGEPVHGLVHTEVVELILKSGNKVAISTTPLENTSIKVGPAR
Chain of GRIP2_4, Q9C0E4 (Q9C0E4 446-548): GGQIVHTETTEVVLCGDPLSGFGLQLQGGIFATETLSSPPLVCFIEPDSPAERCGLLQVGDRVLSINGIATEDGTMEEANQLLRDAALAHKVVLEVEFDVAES
Chain of TJP2_1, Q9UDY2 (Q9UDY2 24-128): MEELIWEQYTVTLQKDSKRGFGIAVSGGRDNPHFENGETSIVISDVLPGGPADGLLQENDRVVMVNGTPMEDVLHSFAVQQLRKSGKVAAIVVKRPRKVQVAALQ
Chain of LAP2, Q96RT1 (Q96RT1 other isoform, or with tags, fused parts or gaps): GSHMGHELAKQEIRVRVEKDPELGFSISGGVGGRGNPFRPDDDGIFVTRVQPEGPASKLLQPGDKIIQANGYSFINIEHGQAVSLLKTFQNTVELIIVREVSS
Chain of HTRA1, Q92743 (Q92743 360-477): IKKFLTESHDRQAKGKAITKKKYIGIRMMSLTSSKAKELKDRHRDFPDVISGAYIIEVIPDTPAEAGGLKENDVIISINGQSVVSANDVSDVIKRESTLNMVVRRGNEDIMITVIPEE
Chain of Inadl_3, Q8NI35 (Q8NI35 359-469): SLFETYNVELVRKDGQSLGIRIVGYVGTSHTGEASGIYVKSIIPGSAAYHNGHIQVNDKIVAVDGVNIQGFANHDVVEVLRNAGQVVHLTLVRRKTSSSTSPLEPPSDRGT
Chain of PTPN3, P26045 (P26045 505-587): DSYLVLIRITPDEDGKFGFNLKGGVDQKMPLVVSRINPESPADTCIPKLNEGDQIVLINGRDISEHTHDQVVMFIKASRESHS
Chain of ARHGEF12, Q9NZN5-2 (Q9NZN5 other isoform, or with tags, fused parts or gaps): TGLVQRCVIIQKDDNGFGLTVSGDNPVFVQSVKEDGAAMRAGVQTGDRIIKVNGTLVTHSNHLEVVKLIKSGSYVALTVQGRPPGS
Chain of GORASP1, Q9BQQ3 (Q9BQQ3 1-208): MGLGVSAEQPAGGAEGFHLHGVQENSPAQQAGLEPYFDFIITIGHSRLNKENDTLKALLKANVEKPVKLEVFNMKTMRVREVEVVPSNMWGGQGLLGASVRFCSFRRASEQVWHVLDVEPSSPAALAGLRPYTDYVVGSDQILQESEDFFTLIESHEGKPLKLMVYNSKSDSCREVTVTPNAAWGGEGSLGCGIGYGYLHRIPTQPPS

As for KSRVAFFEEL [NF2, P35240], the pKd was 3.51 in test [1] (setting [27]); 3.63 in test [2] (setting [27]); 3.61 in test [3] (setting [27]); 3.59 in test [4] (setting [27]); 3.73 in [5] (setting [27]); 3.49 in [6] (setting [27]). In test [7] (setting [27]), this molecule came in with a negative logarithm of the Kd (pKd) of 3.64.
Turning to SRPQRTQTQV [HPV67-E6, A4U7F2], the pKd result in test [8] is “below the threshold”; in test [9] (setting [28]) it was 3.95; in test [10], “below the threshold”; in [11], “below the threshold”; in test [12] it was “below the threshold”; in test [13] (setting [28]), “below the threshold”. The pKd entry is “below the threshold” in [14]; 4.81 in test [1] (setting [28]); “below the threshold” in test [15]; “below the threshold” in test [16]; 3.86 in test [2] (setting [28]); “below the threshold” in test [17]. Moreover, the pKd entry in test [3] (setting [28]) is “below the threshold”; in test [18] it was “below the threshold”; in test [19] (setting [28]), “below the threshold”; in test [20] it was “below the threshold”; in test [21], “below the threshold”; in [22], 5.27. For the same molecule, the negative-log Kd (pKd) entry in test [4] (setting [28]) is “below the threshold”; in test [5] (setting [28]) it was “below the threshold”; in test [23] it was “below the threshold”; in test [6] (setting [28]) it was “below the threshold”; in [24] (setting [28]) it was 4; in test [25], “below the threshold”. The pKd entry in test [7] (setting [28]) and in [26] (setting [28]) was “below the threshold” throughout.
RSLEEEESQL [GRASP, Q7Z6J2]: the pKd in test [8] is 3.74; in test [9] (setting [28]), 4.83; in test [10], “below the threshold”; in test [11], 3.93; in test [12], “below the threshold”; in [13] (setting [28]) it was 3.5. Besides, the negative logarithm of the Kd (pKd) is 4.33 in [14]; “below the threshold” in test [1] (setting [28]); “below the threshold” in [15]; “below the threshold” in test [16]; 3.65 in test [2] (setting [28]); 5.1 in test [17]. The pKd entry in test [3] (setting [28]) is “below the threshold”; in test [18], 3.53; in [19] (setting [28]) it was 3.69; in test [20], 3.65; in [21], “below the threshold”; in [22], 5.6. Also, the negative logarithm of the Kd (pKd) in test [4] (setting [28]) was 4.33; in test [5] (setting [28]), 3.75; in [23] it was “below the threshold”; in [6] (setting [28]), “below the threshold”; in test [24] (setting [28]), 3.56; in test [25] it was 3.72. The results for the pKd in test [7] (setting [28]) and in test [26] (setting [28]) were 3.86 and 3.59, respectively.
Regarding SVWLRKETRV [CYSLTR2, Q9NS75], the negative-log Kd (pKd) entry in [8] is “below the threshold”; in test [9] (setting [28]) it was 4.68; in test [10], “below the threshold”; in test [11] it was “below the threshold”; in test [12], “below the threshold”; in test [13] (setting [28]) it was “below the threshold”. Besides, the pKd result was “below the threshold” in [14]; 5.24 in [1] (setting [28]); “below the threshold” in test [15]; “below the threshold” in [16]; 4.45 in test [2] (setting [28]); 3.51 in test [17]. Moreover, the pKd in test [3] (setting [28]) was 3.46; in test [18], 3.36; in [19] (setting [28]), 4.15; in [20] it was 3.37; in test [21] it was “below the threshold”; in test [22], 5.27. The pKd is 3.45 in test [4] (setting [28]); “below the threshold” in test [5] (setting [28]); “below the threshold” in [23]; 3.77 in [6] (setting [28]); 4.23 in test [24] (setting [28]); 3.7 in [25]. Further, the negative-log Kd (pKd) in [7] (setting [28]) turned out to be 4.03; in [26] (setting [28]), 3.42.
With ERKLSSESQV [LRP4, O75096], the pKd result in [8] was “below the threshold”; in [9] (setting [28]) it was 4.61; in [10], “below the threshold”; in [11], “below the threshold”; in [12] it was “below the threshold”; in test [13] (setting [28]), “below the threshold”. The pKd result in test [14] was “below the threshold”; in test [1] (setting [28]), 4.38; in [15], “below the threshold”; in test [16], “below the threshold”; in test [2] (setting [28]), “below the threshold”; in test [17], “below the threshold”. For the same molecule, the negative logarithm of the Kd (pKd) result was “below the threshold” in test [3] (setting [28]); “below the threshold” in [18]; 3.74 in test [19] (setting [28]); “below the threshold” in test [20]; “below the threshold” in [21]; 4.34 in [22]. In addition, the negative-log Kd (pKd) result in test [4] (setting [28]) was “below the threshold”; in test [5] (setting [28]) it was “below the threshold”; in test [23] it was 3.7; in test [6] (setting [28]) it was “below the threshold”; in test [24] (setting [28]) it was 3.7; in [25] it was “below the threshold”. The negative logarithm of the Kd (pKd) entry in test [7] (setting [28]) and in [26] (setting [28]) was “below the threshold” throughout.
Turning to KRPEMTSSSV [MUC3B, MUC3A, Q02505;Q9H195], the pKd in [9] (setting [27]) was 4.55; in test [13] (setting [27]) it was “below the threshold”; in test [19] (setting [27]) it was 1.89; in [24] (setting [27]), 4; in test [7] (setting [27]) it was 4.24; in test [26] (setting [27]), 2.09.
